Data: the RNAGym collection of RNA variant scans (doi:10.1073/pnas.2313332121)
Fewer inactive variants are shown than the library holds.

B1: TPR 5TU (parent)
chain: GGAUCUUCUCGAUCUAACAAAAAAGACAAAUCUGCCACAAAGCUUGAGAGCAUCUUCGGAUGCAGAGGCGGCAGCCUUCGGUGGCGCGAUAGCGCCAACGUUCUCAACUAUGACACGCAAAACGCGUGCUCCGUUGAAUGGAGUUUAUCAUG

Variants of: B1
Assay: polymerase ribozyme fitness, log enrichment relative to wild type (log ratio); higher = more active; in vitro selection for triplet polymerase activity
In short: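 Mutant libraries for each subunit of a heterodimeric triplet polymerase ribozyme were made by PCR and then transcribed. Each library underwent one round of in vitro selection in triplicate: annealing with a biotinylated primer, the partner subunit and triplets, frozen incubation at −7 °C, gel excision of extended constructs, streptavidin-bead capture and RT-PCR. Input and output libraries were Illumina-sequenced, and only genotypes with ≥10 input reads and ≥1 read per output were kept. Fitness is the logarithm, base 2, of genotype enrichment over wild-type enrichment, computed from inverse-variance-weighted replicate averages.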

Variant | polymerase ribozyme fitness (log ratio)
G34A G117U A137C A142U | ≤ -4.2
A19G G50A C69U G84U A98U A122G | ≤ -4.2
A17G A21G C57U C96A A137U A138G | ≤ -4.2
U4C A19U G86U | -2.06
G42A U61A G84C G133U U144G | ≤ -4.2
C54G G58C A122G G124U | -2.2
G58A A60C C63A U82G G88C C95A A113G A147G | ≤ -4.2
C85U A121U C132A U134A | -4.16
A22C C27A U56A C85U C93A C99G A138U | ≤ -4.2
U6C U82A C99U G136U | -3.43
A73U G94A G152C | ≤ -4.2
A39U A40C G42U G48A A60U U82G C85A U104A U127C | ≤ -4.2
U55A A73G A89G G136A | -0.934
A49G A60G C85U | -0.602
G68A G74C G88A | ≤ -4.2
C5U U6G C79G | ≤ -4.2
A52C C69G G84U A115C | ≤ -4.2
G141A | 0.689
A12G U13A U31A C57A G65A C85G | ≤ -4.2
G50A C85U C96U C105U G141A | -1.94
G50A G86U | -3.78

Variant | polymerase ribozyme fitness (log ratio)
U45A A60G G94A C95G U144C U151G | ≤ -4.2
A12U C36G G86A A110C U139A | -4.11
C76A C87U G92C A142G | ≤ -4.2
A22U C87U G141U | 1.15
G83U G112U | -4
C54A U61A C69U C125A | ≤ -4.2
G62A A73C C75G C87U C103G C132G U145G U146A | ≤ -4.2
U44G U45G C54U C87A | ≤ -4.2
A21U C27A U44G C87A A137U | ≤ -4.2
C10U G92A G141C | -3.99
A41C U55C C85G C108U G126A | ≤ -4.2
A52G C79U G92A C116G | ≤ -4.2
C118G A150G | -2.14
C10A A21U G84A A97U A113G | ≤ -4.2
C14U G81A | -1.14
A110U G128A | ≤ -4.2
C8A C14U A21C U53A G83A A150C | ≤ -4.2
A30G C51U G68C A121G U127C | ≤ -4.2
A30U G84A C96U U144A | ≤ -4.2
C96A | -0.52
A37U C75A C85U G112C G124C C132G A142G U145A | ≤ -4.2

Variant | polymerase ribozyme fitness (log ratio)
A29U G68A | ≤ -4.2
A40G A115G A137G C149U | -4.02
G86C A98C | -1
C36A G84U C114A A120U G143U | -4.19
A73C A142U | ≤ -4.2
A41G U146G | -0.0573
A17G C72U A147C | -0.924
C63G A110U G136U U148A | ≤ -4.2
U13C C27A A49C U56A A97U | ≤ -4.2
C10G A20U A52C G86A G92U A115U G152A | ≤ -4.2
U4G C27U A97U | -2.22
A20C U56A A107U | -2.71
A40C U56A C57U G140C | -3.75
C32U A49C U55A G81A C85U U90A A106U A121U C125A | ≤ -4.2
A49G U55G C57U A60G C75G C76U U90A U102C U134G G140C | ≤ -4.2
C14A U44G | -4.1
G25U C35U A49U G68A G81A U109G C118U G126C | ≤ -4.2
A41C U134G | -2.46
C76A G92A U134C | -3.62
A12C A24G C85U C95U A120G | ≤ -4.2
U9C G50C C75G C85G C125A | ≤ -4.2

Variant | polymerase ribozyme fitness (log ratio)
C36A A64U A107U U139A G140C | ≤ -4.2
A40U A91C A120C C129A U151A | ≤ -4.2
A39U A66C G68A C108U A121U U134A G143U | ≤ -4.2
G81A G140C | -2.67
C76U G94A C105U | -0.337
G83C A89U G124U | -1.35
C14G G48C A49G U53A G92U C93U A107U | ≤ -4.2
C79U G84A C108A C114A C118A U139G | ≤ -4.2
C54U G81U G83U G152U | -4.17
G71A A91U U146G | ≤ -4.2
A29C A39U A52C U101G C125G G126A G143U U146C | ≤ -4.2
A12U C93U | -1.13
G88A U144G | -3.35
A49C U56G G65U A73C C87A | ≤ -4.2
A24U G34A G92C A137G | -4.07
G80C C87U U102G G124C U130A | ≤ -4.2
U15A A21G C36G A60C C96A A147C | ≤ -4.2
G59C G86C G143U | ≤ -4.2
A47G A91G A97G G112C | ≤ -4.2
A40G C76U C95U C116G | -3.42
